Measurements: paper PMC9482650, “Quantitative fragmentomics allow affinity mapping of interactomes” (Nature Communications, 2022)

T1: DVL3, Q92997
T1 sequence (Q92997 244-331, limits assumed, looked up): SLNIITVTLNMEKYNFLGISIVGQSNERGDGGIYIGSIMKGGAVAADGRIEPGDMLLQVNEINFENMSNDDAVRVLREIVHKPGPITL

T2: PDZRN3_1, Q9UPQ7
T2 sequence (Q9UPQ7 244-349, limits assumed, looked up): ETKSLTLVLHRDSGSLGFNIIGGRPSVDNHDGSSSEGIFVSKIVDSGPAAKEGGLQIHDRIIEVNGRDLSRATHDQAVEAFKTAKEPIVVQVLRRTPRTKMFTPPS

T3: GRIP1_5, Q9Y3R0
T3 sequence (Q9Y3R0 568-668, limits assumed, looked up): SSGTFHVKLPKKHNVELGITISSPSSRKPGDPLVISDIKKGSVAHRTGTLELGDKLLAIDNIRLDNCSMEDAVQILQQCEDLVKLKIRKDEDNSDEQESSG

T4: RADIL, Q96JH8
T4 sequence (Q96JH8 971-1071, limits assumed, looked up): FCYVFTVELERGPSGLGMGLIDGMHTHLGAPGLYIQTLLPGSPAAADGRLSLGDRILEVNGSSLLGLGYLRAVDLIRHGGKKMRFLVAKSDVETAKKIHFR

T5: GRIP1_3, Q9Y3R0
T5 sequence (Q9Y3R0 247-346, limits assumed, looked up): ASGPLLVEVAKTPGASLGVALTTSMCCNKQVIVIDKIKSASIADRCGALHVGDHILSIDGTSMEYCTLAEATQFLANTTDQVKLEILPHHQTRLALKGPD

T6: GRIP1_2, Q9Y3R0
T6 sequence (Q9Y3R0 145-248, limits assumed, looked up): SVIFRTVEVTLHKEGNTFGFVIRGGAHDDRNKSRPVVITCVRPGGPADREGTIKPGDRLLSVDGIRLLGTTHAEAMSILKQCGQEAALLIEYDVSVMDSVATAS

T7: RAPGEF6, Q8TEU7
T7 sequence (Q8TEU7 525-625, limits assumed, looked up): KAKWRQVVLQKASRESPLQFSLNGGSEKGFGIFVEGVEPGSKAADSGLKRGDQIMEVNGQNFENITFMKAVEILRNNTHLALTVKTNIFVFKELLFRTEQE

T8: DFNB31_3, Q9P202
T8 sequence (Q9P202 811-907, limits assumed, looked up): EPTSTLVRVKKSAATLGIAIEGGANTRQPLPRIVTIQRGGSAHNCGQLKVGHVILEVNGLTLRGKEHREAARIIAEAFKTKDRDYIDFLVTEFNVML

T9: LIN7A, O14910
T9 sequence (O14910 103-200, limits assumed, looked up): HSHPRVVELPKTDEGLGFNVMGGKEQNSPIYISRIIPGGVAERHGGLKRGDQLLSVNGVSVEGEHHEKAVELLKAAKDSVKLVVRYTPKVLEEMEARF

T10: RHPN1, Q8TCX5
T10 sequence (Q8TCX5 508-602, limits assumed, looked up): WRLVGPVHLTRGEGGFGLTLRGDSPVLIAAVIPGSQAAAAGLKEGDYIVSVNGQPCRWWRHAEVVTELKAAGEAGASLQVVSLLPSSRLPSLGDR


Columns and labels:
Experiment in all cases: holdup assay
Design in all cases: key: below the threshold = too weak to quantify, mostly under pKd 3.1 to 4
Settings in all cases: plain residues with an end cap or a label only (N-terminal biotin on a linker: ado-ado)
[1] = target: Inadl_10, Q8NI35
[2] = target: T1, DVL3, Q92997
[3] = target: PDZRN4_1, Q6ZMN7
[4] = target: MAGI1_1, Q96QZ7
[5] = target: T2, PDZRN3_1, Q9UPQ7
[6] = target: GORASP1, Q9BQQ3
[7] = target: T3, GRIP1_5, Q9Y3R0
[8] = target: T4, RADIL, Q96JH8
[9] = target: T5, GRIP1_3, Q9Y3R0
[10] = target: T6, GRIP1_2, Q9Y3R0
[11] = target: T7, RAPGEF6, Q8TEU7
[12] = target: T8, DFNB31_3, Q9P202
[13] = target: HTRA1, Q92743
[14] = target: DLG4_2, P78352
[15] = target: T9, LIN7A, O14910
[16] = target: PDLIM1, O00151
[17] = target: LNX1_3, Q8TBB1
[18] = target: TJP2_1, Q9UDY2
[19] = target: GIPC2, Q8TF65
[20] = target: DLG4_3, P78352
[21] = target: LNX1_1, Q8TBB1
[22] = target: GORASP2, Q9H8Y8
[23] = target: T10, RHPN1, Q8TCX5
[24] = target: SCRIB_1, Q14160
[25] = target: MAST2, Q6P0Q8
[26] = target: NHERF4_4, Q86UT5
[27] = target: NHERF4_2, Q86UT5
NHERF4_2, Q86UT5, sequence (Q86UT5 220-308): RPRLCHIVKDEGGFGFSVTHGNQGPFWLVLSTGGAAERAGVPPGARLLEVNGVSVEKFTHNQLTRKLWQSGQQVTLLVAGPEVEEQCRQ

MAST2, Q6P0Q8, sequence (Q6P0Q8 1099-1202): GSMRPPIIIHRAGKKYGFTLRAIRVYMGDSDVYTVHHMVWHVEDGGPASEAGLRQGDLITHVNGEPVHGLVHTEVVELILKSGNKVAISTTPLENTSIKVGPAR
PDZRN4_1, Q6ZMN7, sequence (Q6ZMN7 213-318): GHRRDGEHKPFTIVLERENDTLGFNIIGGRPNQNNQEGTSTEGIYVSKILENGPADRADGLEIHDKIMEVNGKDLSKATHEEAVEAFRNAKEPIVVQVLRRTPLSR
HTRA1, Q92743, sequence (Q92743 360-477): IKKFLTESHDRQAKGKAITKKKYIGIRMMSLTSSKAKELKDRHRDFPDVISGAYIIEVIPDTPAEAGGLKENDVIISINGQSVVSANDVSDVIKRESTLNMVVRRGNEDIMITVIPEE
GIPC2, Q8TF65, sequence (Q8TF65 112-203): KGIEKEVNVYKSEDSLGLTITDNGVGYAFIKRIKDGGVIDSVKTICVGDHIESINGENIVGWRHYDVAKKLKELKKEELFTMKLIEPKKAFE
GORASP1, Q9BQQ3, sequence (Q9BQQ3 1-208): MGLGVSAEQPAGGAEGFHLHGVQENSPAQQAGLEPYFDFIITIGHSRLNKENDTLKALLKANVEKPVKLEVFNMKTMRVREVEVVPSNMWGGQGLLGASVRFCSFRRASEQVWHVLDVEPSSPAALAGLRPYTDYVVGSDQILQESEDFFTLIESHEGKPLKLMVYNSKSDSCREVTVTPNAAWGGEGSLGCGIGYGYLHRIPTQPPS
DLG4_3, P78352, sequence (P78352 306-403): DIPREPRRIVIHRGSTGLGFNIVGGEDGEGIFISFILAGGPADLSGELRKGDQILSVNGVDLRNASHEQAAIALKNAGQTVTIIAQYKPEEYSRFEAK
TJP2_1, Q9UDY2, sequence (Q9UDY2 24-128): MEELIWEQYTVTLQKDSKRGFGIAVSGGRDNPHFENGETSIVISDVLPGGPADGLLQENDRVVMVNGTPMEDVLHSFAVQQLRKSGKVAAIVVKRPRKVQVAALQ
MAGI1_1, Q96QZ7, sequence (Q96QZ7 1-106): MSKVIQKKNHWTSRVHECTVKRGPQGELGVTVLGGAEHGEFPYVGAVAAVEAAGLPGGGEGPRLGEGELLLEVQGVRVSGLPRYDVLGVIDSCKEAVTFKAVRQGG
SCRIB_1, Q14160, sequence (Q14160 718-814): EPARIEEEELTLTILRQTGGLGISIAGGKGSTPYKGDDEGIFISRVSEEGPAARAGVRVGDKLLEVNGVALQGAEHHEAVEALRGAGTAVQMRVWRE
Inadl_10, Q8NI35, sequence (Q8NI35 1673-1763): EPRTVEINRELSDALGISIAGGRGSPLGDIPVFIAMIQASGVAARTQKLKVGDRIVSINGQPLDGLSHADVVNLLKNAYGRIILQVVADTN
LNX1_1, Q8TBB1, sequence (Q8TBB1 261-371): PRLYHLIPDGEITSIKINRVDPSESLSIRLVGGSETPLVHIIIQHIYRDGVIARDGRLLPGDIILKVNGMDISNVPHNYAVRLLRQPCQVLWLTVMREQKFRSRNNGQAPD
NHERF4_4, Q86UT5, sequence (Q86UT5 464-550): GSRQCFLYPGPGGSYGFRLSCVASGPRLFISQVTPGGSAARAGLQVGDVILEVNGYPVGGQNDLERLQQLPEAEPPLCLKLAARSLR
DLG4_2, P78352, sequence (P78352 155-259): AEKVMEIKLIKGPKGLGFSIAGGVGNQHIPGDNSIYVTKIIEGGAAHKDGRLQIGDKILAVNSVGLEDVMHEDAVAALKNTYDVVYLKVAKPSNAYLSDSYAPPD
LNX1_3, Q8TBB1, sequence (Q8TBB1 500-596): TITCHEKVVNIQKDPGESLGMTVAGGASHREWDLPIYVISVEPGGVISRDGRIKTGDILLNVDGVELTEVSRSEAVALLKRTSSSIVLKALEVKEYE
PDLIM1, O00151, sequence (O00151 1-87): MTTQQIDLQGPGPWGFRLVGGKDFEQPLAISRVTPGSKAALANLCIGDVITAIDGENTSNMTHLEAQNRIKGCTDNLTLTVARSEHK

pKd [1] | pKd [2] | pKd [3] | pKd [4] | pKd [5] | pKd [6] | pKd [7] | pKd [8] | pKd [9] | pKd [10] | pKd [11] | pKd [12] | pKd [13] | pKd [14] | pKd [15] | pKd [16] | pKd [17] | pKd [18] | pKd [19] | pKd [20] | also measured | Binder
below the threshold | below the threshold | below the threshold | 3.66 | 3.65 | 3.73 | below the threshold | 3.91 | below the threshold | below the threshold | below the threshold | 4.8 | 4.06 | 4.56 | below the threshold | below the threshold | below the threshold | 3.66 | 3.49 | 3.72 | pKd [21]: 4.27; pKd [22]: 3.77; pKd [23]: 4.26; pKd [24]: 4.02; pKd [25]: 4.92; pKd [26]: below the threshold; pKd [27]: below the threshold | QHKTQLQTLI [BPIFA2, Q96DR5]
below the threshold | below the threshold | 4.66 | below the threshold | 4.09 | below the threshold | below the threshold | 3.52 | below the threshold | below the threshold | below the threshold | 3.63 | 4.64 | 3.7 | below the threshold | below the threshold | below the threshold | below the threshold | below the threshold | below the threshold | pKd [21]: below the threshold; pKd [22]: below the threshold; pKd [23]: 4.92; pKd [24]: 4.37; pKd [25]: 5.64; pKd [26]: below the threshold; pKd [27]: below the threshold | DDPSTAETVL [ABCA7, Q8IZY2]
below the threshold | below the threshold | below the threshold | below the threshold | below the threshold | below the threshold | below the threshold | below the threshold | below the threshold | below the threshold | below the threshold | below the threshold | below the threshold | below the threshold | below the threshold | below the threshold | below the threshold | below the threshold | below the threshold | below the threshold | pKd [21]: below the threshold; pKd [22]: below the threshold; pKd [23]: below the threshold; pKd [24]: below the threshold; pKd [25]: below the threshold; pKd [26]: below the threshold; pKd [27]: below the threshold | LSEFKAMDSI [CTNNA1, P35221]
below the threshold | 3.85 | below the threshold | 3.62 | below the threshold | 4.15 | below the threshold | 4.2 | below the threshold | below the threshold | 3.57 | below the threshold | 5.61 | 3.7 | below the threshold | below the threshold | 3.8 | below the threshold | below the threshold | 3.56 | pKd [21]: below the threshold; pKd [22]: 4.88; pKd [23]: below the threshold; pKd [24]: 3.66; pKd [25]: 3.74; pKd [26]: 3.62; pKd [27]: below the threshold | VDSTVKVWTC [TRAF7, Q6Q0C0]
